Test results reported in the supplement of paper PMC9170038.

Test system: MS2 coat protein
Experiment: apparent KD of MS2 coat protein; designed switch direction (-1 OFF switch, 1 ON switch): -1; higher = weaker reporter binding
Outline: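 Stalled E. coli RNA polymerase transcribed designed RNA switches on Illumina chips, which were then titrated with SNAP-549-labelled MS2 coat protein, doubling from 0.7 or 1.5 nM to 3 µM. Steps lasted from 0.8–1.5 h at the lowest concentration to 10–20 min at the highest. The apparent KD is each design's median over clusters of curve-fitted normalised fluorescence.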

[1] = Eterna round: R95, input ligand: microRNA oligo, concentration not stated
[2] = input ligand: microRNA oligo, concentration not stated
[3] = Eterna round: R95, input ligand: FMN 200 uM
[4] = Eterna round: R95, input ligand: none

| Sequence | apparent KD of MS2 coat protein [1] [nM] | apparent KD of MS2 coat protein [2] [nM] | apparent KD of MS2 coat protein (input ligand: FMN 200 uM) [nM] | apparent KD of MS2 coat protein (input ligand: none) [nM] | apparent KD of MS2 coat protein [3] [nM] | apparent KD of MS2 coat protein [4] [nM] |
| --- | --- | --- | --- | --- | --- | --- |
| UAAUUAAGUGUGAGGAUAUGCUGGUCCUUGGAUCAGCAGAAGGCACAUGAGGAUCACCCAUGUAAUUUAUAUAU [Mat - Exclusion 4 - JL Mod - D52] (puzzle: Brourd's mod of Exclusion 4) | 85.5 |  |  |  |  |  |
| UAAUUAAUAAGAUCAAUUAAUUAACAUGAGGAUCACCCAUGUGAGGAUAUCAGCUCGAUUAGAGCUGAGAAGGCACAAUAAUUA [ExNG3/17-C1] (Eterna round: R96, puzzle: Exclusion NG 3) |  | 39 |  |  |  |  |
| UAAUUAGCAAGUAGAUCCGACAUGAGGAUCACCCAUGUUAUCUGAAAGAACGCAGAAUAAUUGUGAGCUCGUCUAAA [Sensor-V1 #2] (Eterna round: R97, puzzle: Sensor, turn-off variant 1) |  |  | 144 | 154 |  |  |
| UACACUGCAUGAGGAUCAAACAUGAGGAUCACCCAUGUAUAGCAAGCUUUUUGCUCGUCUUAUAAUUAUGUAGUGUA [Electric Eye 12 - Jieux - Sensor, turn-off variant 1] (Eterna round: R97, puzzle: Sensor, turn-off variant 1) |  |  | 15 | 15.7 |  |  |
| UACAUGAGGAUCACCCAUGUUUUGUCGUGUAUGGUAUUUAUCUAGGAUAUCAAUGUAUUUAAUUAUGAGAAGGAGAAUAUUAAU [JMF's solution 45] (Eterna round: R96, puzzle: Exclusion NG 3) |  | 29.6 | 45.4 | 44.6 |  |  |
| UACAUGAGGAUCACCCAUGUUUUGUCGUGUAUGGUAUUUAUCUAGGAUAUCAAUUUAGUUACUUAUGAGAAGGAGAAUAUUAAU [JMF's solution 77] (Eterna round: R96, puzzle: Exclusion NG 3) |  | 22.3 | 33.8 | 38.7 |  |  |
| UACAUGAGGAUCACCCAUGUUUUGUCGUGUAUGGUAUUUAUCUAGGAUAUCAAUUUAGUUAUGUAUGAGAAGGAGAAUAUUAAU [JMF's solution 78] (Eterna round: R96, puzzle: Exclusion NG 3) |  | 33.9 | 43.7 | 46.4 |  |  |
| UACAUGAGGAUCACCCAUGUUUUGUCGUGUAUGGUAUUUAUCUAGGAUAUCAUUGUAUUUAUUUAUGAGAAGGAGAAUAUUAAU [JMF's solution 96] (Eterna round: R96, puzzle: Exclusion NG 3) |  | 24 | 34.4 | 32.6 |  |  |
| UACAUGAGGAUCACCCAUGUUUUGUCGUGUAUGGUAUUUAUCUAGGAUAUCAUUUUAGUUAGUUAUGAGAAGGAGAAUAUUAAU [JMF's solution 88] (Eterna round: R96, puzzle: Exclusion NG 3) |  | 26.4 |  |  |  |  |
| UACCGUGGUUAGGAUAUACCGUGACACCGCUGAGUAGAAGGAACCACAUGAGGAUCACCCAUGUAAUAUGAAGG [Eternabot (L2) Solution 94] (Eterna round: R97, puzzle: Exclusion 6) |  |  | 159 | 51.9 |  |  |
| UACCUGAGGCAAAGCUUUAGGUAAACAUGAGGAUCACCCAUGUAGGAUAUGGUAGGCAAAGCUUACCAGAAGGACAUGUUAAUU [Mat - Exclusion NG 3 - Mod of JL - D34] (Eterna round: R96, puzzle: Exclusion NG 3) |  | 79.5 | 341 | 83 |  |  |
| UACCUGAGGCUUUGCUUUAGGUAUACAUGAGGAUCACCCAUGUAGGAUAUGGUAGGCUUUGCUUACCAGAAGGACAUGUUAAUU [JL ENG3 1.09] (Eterna round: R96, puzzle: Exclusion NG 3) |  | 30.9 | 141 | 29 |  |  |
| UAGAAACAUGAGGAUCACCCAUGUGAGGAUAUGAAAAAGAAAAGAAAAGAAAGAAGAAUCAGAAGGCACAAAGU [salish99-ex1_r3_087] (puzzle: Exclusion 1) | 27.2 |  |  |  | 30.5 | 32.3 |
| UAGAAUCGAGGAUAUACAUGAGGAUCACCCAUGUGUGGCCACUUGGUGUGGUCGUCAGGUAGAAGGCGAUUACA [Exclusion 3 - Mod of Jieux's Gilly Gone Silly 23 v.4] (puzzle: Exclusion 3) | 30.9 |  |  |  | 26.9 | 39.4 |
| UAGAAUCGAGGAUAUACAUGAGGAUCACCCAUGUGUGGCCAUACGGUGUGGUCGUCAGGUAGAAGGCGAUUAUA [Exclusion 3 - Mod of Jieux's Gilly Gone Silly 23 v.2] (puzzle: Exclusion 3) | 28 |  |  |  |  |  |
| UAGACCUCGUCAGGAUAUCCAGGUUCUUCGCCCGGAGAAGGGACAUGAGGAUCACCCAUGUAGGAGAGCAUCGCUGUCGAGCAA [Redixeri] (Eterna round: R96, puzzle: Exclusion NG 1) |  | 11.5 | 19.3 | 18.3 |  |  |
| UAGAUGGGAGGAUAUACGUAGAUGCGGAUUCGUGUGGUGCUACAUGAGGAUCACCCAUGUAGAAGGCCCGUCUU [JL-ex2-2.25 Mayanne mod] (puzzle: Exclusion 2) | 15.6 |  |  |  |  |  |
| UAGCAUUGCCUUUGGUAGUGCAUUACAUGAGGAUCACCCAUGUAGGAUAUGGUAGGCUUUGCUUACCAGAAGGACAUGAUAAUU [JL ENG3 1.05] (Eterna round: R96, puzzle: Exclusion NG 3) |  | 38.9 | 135 | 48.7 |  |  |
| UAGCAUUGCCUUUGGUAGUGCUUUACAUGAGGAUCACCCAUGUAGGAUAUGGUCGGCUUUGCUGACCAGAAGGACAUGUGUAUU [MOD ENG3 1.04 by JL] (Eterna round: R96, puzzle: Exclusion NG 3) |  | 94.4 | 130 | 80.7 |  |  |
| UAGGAUACCGUCAGGAUAUAGAGUUCCCACAGACUCUAGAAGGGACAUGAGGAUCACCCAUGUCGUGCAACGUU [Eternabot (L1) Solution 54] (Eterna round: R97, puzzle: Brourd's mod of Exclusion 4) |  |  | 20.2 | 16.2 |  |  |
| UAGGCGUAAGGAUAUAUCUUUGGACGAGCGAGGGACCAGAGAUAGAAGGUACAUGAGGAUCACCCAUGUGGGUC [Eternabot (L1) Solution 41] (Eterna round: R97, puzzle: Exclusion 4) |  |  | 189 | 64.9 |  |  |
| UAGGUGUGAGGAUAUGGUAAAGAUAAGAUGAUGAAAGAACUCCAGAAGGCACAUGAGGAUCACCCAUGUAGAAG [Mat - Exclusion 4 - Mod of JL - D30] (puzzle: Exclusion 4) | 22.8 |  |  |  | 27.9 | 24.7 |
| UAGUACAGAGGAUAUACAUGAGGAUCACCCAUGUGUUUCAGCUAGGAGACUAGCGAAAGUAGAAGGCUGUACUG [salish99_ex3_r4_010] (Eterna round: R97, puzzle: Exclusion 3) |  |  | 26.2 | 11.4 |  |  |
| UAGUGGGUACGAAGGAGUAGUUUGAGCGUACGUUCUGUAACAUGAGGAUCACCCAUGUAGCUUUUUGCUCGACUUAU [JR_SV3TOV2_Sub037] (puzzle: Sensor v3, turn-off variant 2) | 55.7 |  |  |  | 28.9 | 29.4 |
| UAUACACAUGAGGAUCACCCAUGUGAGGAUAUGUUAAUUUUAAUGAAAAUUAAAAUUAACAGAAGGCACAUAUA [JR_Exclusion1_Sub025] (puzzle: Exclusion 1) | 67.2 |  |  |  |  |  |
| UAUAUAUAGUAAGGAUAUGUAAUUAUUUUACAAACAGAAGGUACUGACAUGAGGAUCACCCAUGUUUUAGUGUGGGCAUGUAGA [JMF's solution 46] (Eterna round: R96, puzzle: Exclusion NG 1) |  | 39.7 |  |  |  |  |
| UAUAUAUAGUAAGGAUAUGUAAUUAUUUUAUAGACAGAAGGUACUGACAUGAGGAUCACCCAUGUUUUAGUGUGGGCAUGUAGA [JMF's solution 50] (Eterna round: R96, puzzle: Exclusion NG 1) |  | 60.9 |  |  |  |  |
| UAUAUAUAGUAAGGAUAUGUAAUUUUUUUAUAAACAGAAGGUACUGACAUGAGGAUCACCCAUGUUUUAGUGUGGGCAUGUAGA [JMF's solution 32] (Eterna round: R96, puzzle: Exclusion NG 1) |  | 78.3 |  |  |  |  |
| UAUAUAUAGUAAGGAUAUGUAUAUAUUUUAUGAACAGAAGGUACUGACAUGAGGAUCACCCAUGUUUUAGUGUGGGCAUGUAGA [JMF's solution 70] (Eterna round: R96, puzzle: Exclusion NG 1) |  | 38.8 | 49.4 | 64.8 |  |  |
| UAUAUAUAGUAAGGAUAUGUAUUAAAUUUAUAAACAGAAGGUACUGACAUGAGGAUCACCCAUGUUUUAGUGUGGGCAUGUAGA [JMF's solution 75] (Eterna round: R96, puzzle: Exclusion NG 1) |  | 69 |  |  |  |  |
